Broadly, the Kd is the equilibrium constant for the complex coming apart.

For assay [1], the target named is NAGK (Synechococcus elongatus) (UniProt Q6V1L5). The assay can be described thus: ultrafiltration. The settings on record: cited from earlier work.
Assay [2] concerns the target PII-LgBiT (wild-type PII protein from Synechocystis sp. PCC6803 fused to Large BiT) (Synechocystis sp. PCC6803) (UniProt Q55247). The assay can be described thus: split reporter (BiFC, NanoBiT); competition; 10 pM PII-LgBiT trimer with PipX (180, 900, 1800 nM monomer) 15 min at 30 °C, then 180 nM NAGK-SmBiT monomer for 30 min; 2 mM ATP.
Assay [3] shares this target. The assay is described as follows: split reporter (BiFC, NanoBiT); in solution; PipX-SmBiT (0-800 nM) titrated to 10 pM PII-LgBiT trimer; 2 mM ADP; 50 mM Tris/HCl pH 7.6, 100 mM KCl, 10% glycerol, 2 mM MgCl2, 0.1% BSA; 15 min at 30 °C; KD from half-maximal luminescence.
For assay [4] the target is unchanged. The assay can be described thus: split reporter (BiFC, NanoBiT); in solution; PipX-SmBiT (0-800 nM) titrated to 10 pM PII-LgBiT trimer; 2 mM ATP; 50 mM Tris/HCl pH 7.6, 100 mM KCl, 10% glycerol, 2 mM MgCl2, 0.1% BSA; 15 min at 30 °C; KD from half-maximal luminescence.
Assay [5] has the same target. The assay can be described thus: split reporter (BiFC, NanoBiT); time course; 10 pM PII-LgBiT and 10 nM PipX-SmBiT; complex formed with 1 mM ATP + 1 mM ADP, then 2 mM 2-OG added.
The target is the same in assay [6]. The assay can be described thus: split reporter (BiFC, NanoBiT); time course; 10 pM PII-LgBiT and 10 nM PipX-SmBiT; complex formed with 2 mM ATP, then 2 mM 2-OG added.
For assay [7] the target is unchanged. The assay can be described thus: split reporter (BiFC, NanoBiT); time course; 10 pM PII-LgBiT and 10 nM PipX-SmBiT; ATP/ADP mixtures at a total ADP + ATP concentration of 2 mM.

Chain of PII-LgBiT (wild-type PII protein from Synechocystis sp. PCC6803 fused to Large BiT) (Synechocystis sp. PCC6803) (Q55247 whole entry, the tested form may be a part): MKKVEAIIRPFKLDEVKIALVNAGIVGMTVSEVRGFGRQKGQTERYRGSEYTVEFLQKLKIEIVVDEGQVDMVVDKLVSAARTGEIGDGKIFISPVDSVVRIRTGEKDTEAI
Chain of PII (P0A3F4 whole entry): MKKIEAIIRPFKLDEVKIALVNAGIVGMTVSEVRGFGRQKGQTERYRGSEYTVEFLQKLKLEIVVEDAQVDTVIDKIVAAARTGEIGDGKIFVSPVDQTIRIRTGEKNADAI
Chain of NAGK (Synechococcus elongatus) (Q6V1L5 whole entry, the tested form may be a part): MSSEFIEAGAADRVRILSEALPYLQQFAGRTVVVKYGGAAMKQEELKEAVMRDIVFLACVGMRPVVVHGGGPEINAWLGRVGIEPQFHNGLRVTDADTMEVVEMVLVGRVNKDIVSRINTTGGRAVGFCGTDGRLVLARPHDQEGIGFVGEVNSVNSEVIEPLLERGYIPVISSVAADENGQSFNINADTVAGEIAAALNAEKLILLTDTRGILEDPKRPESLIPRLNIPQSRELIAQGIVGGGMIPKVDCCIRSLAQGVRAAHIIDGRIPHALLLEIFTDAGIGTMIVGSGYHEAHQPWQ

Regarding PII (from UniProt P0A3F4), the Kd in assay [1] was 73 nM.

As to “PipX (without SmBiT, competitor) (natural protein)”, the luminescence signal of PII-LgBiT with NAGK-SmBiT left at PipX 1:1 to NAGK (2 mM ATP) in assay [2] was 50%.

For the substance “PipX-SmBiT (PII-interacting protein X fused to Small BiT) (natural protein)”, the equilibrium dissociation constant (Kd) in assay [3] came to 5.7 nM; in assay [4] it was 52 nM. The time until half of the complexes was dissociated after adding 2 mM 2-OG (1 mM ATP + 1 mM ADP) in assay [5] was 340 s. Besides, in assay [6], the time until half of the complex was dissociated after adding 2 mM 2-OG (2 mM ATP) stood at 45 s. Besides, in assay [7], the luminescence signal with 0.5 mM ADP + 1.5 mM ATP (percent) came to 80%.
